Reference: patent publication US20250269047A1 (MABWELL SHANGHAI BIOSCIENCE, published 2025)

Target: T1, recombinant human B7-H3-his extracellular domain protein (UniProtKB-Q5ZPR3, 1 aa-461 aa) (human, UniProt Q5ZPR3 29-461)
T1 construct: range 1-461; The printed range 1-461 starts at residue 1 and so includes the signal peptide; also called Human B7-H3 ECD; recombinant human B7-H3-his protein; not shown: C-terminal his tag
T1 sequence (looked up): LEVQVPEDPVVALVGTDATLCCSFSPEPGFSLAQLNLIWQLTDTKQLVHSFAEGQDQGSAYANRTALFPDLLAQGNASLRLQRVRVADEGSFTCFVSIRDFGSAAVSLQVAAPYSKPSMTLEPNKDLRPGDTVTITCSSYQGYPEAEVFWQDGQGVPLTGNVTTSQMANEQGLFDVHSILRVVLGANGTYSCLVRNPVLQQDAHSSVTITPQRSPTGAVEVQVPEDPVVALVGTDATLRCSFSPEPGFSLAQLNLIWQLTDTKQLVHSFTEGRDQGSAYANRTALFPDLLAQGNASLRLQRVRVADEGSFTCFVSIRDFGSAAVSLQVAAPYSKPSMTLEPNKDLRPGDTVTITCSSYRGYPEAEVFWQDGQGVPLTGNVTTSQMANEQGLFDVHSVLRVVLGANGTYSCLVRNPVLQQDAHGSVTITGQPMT
Assay: BLI (Octet QKe), antibody on AHC biosensor, B7-H3-his 60 nM in solution
Experimental: According to the mutation designs, site-directed mutagenesis was performed in the plasmids expressing the humanized light chains and heavy chains respectively using StarMut gene Site-directed Mutagenesis Kit (Cat.: T111-01, GenStar). The mutated plasmids were transformed into E. coli cells for expansion, and plasmids expressing the humanized and mutated light and heavy chains based on the antibodies 9B11, 10B4, and 17A3 were obtained. […] 5-6 days after cell transfection, culture supernatants were purified through ProA affinity chromatography column to obtain different humanized antibodies. Affinities of the antibodies were determined by an assay including capturing Fc fragments of the antibodies with anti-human IgG Fc capture (AHC) biosensors using Octet QKe system instrument from Fortebio. For the assay, each of the humanized antibodies and the chimeric antibodies based on the antibodies 9B11, 10B4, and 17A3 was diluted to 4 μg/ml in PBS, and was allowed to flow through the surface of an AHC biosensor (Cat.: 18-0015, PALL) for 300 s. Recombinant human B7-H3-his protein (Accession No.: UniProtKB-Q5ZPR3, 1 aa-461 aa) was used as a mobile phase, and its concentration was 60 nM. The association time was 100 s and the dissociation time was 300 s. When the assay was finished, data from which the response values of blank control had been deducted were fitted to a 1:1 Langmuir binding model using software, and then kinetic constants for antigen-antibody binding were calculated. The light and heavy chain combinations and the affinity constant KD values of the humanized and the mutant antibodies based on the antibodies 9B11, 10B4, and 17A3 are shown in Tables 6-8 respectively.

Row | Binder | Kd [nM]
1 | hz10B4-8 (antibody, human IgG1, kappa, hz10B4_VH4 + hz10B4_VL2; human IgG1, kappa) heavy: not shown light: DIQLTQSPSSLSASVGDRVTMTCSASSSVSYMHWYQQKPGKAPKLLIYDTSKLASGVPSRFSGSGSGTDFTLTISSLQPEDFATYYCQQWSSNPLTFGGGTKVEIKRTVAAPSVFIFPPSDEQLKSGTASVVCLLNNFYPREAKVQWKVDNALQSGNSQESVTEQDSKDSTYSLSSTLTLSKADYEKHKVYACEVTHQGLSSPVTKSFNRGEC | 0.211
2 | hz10B4-1 (antibody, human IgG1, kappa, hz10B4_VH1 + hz10B4_VL1; human IgG1, kappa) heavy: not shown light: DIQMTQSPSSLSASVGDRVTMTCSASSSVSYMHWYQQKPGKAPKLLIYDTSKLASGVPSRFSGSGSGTDFTLTISSLQPEDFATYYCQQWSSNPLTFGGGTKVEIKRTVAAPSVFIFPPSDEQLKSGTASVVCLLNNFYPREAKVQWKVDNALQSGNSQESVTEQDSKDSTYSLSSTLTLSKADYEKHKVYACEVTHQGLSSPVTKSFNRGEC | 0.827
3 | hz10B4-2 (antibody, human IgG1, kappa, hz10B4_VH2 + hz10B4_VL1; human IgG1, kappa) heavy: not shown light: DIQMTQSPSSLSASVGDRVTMTCSASSSVSYMHWYQQKPGKAPKLLIYDTSKLASGVPSRFSGSGSGTDFTLTISSLQPEDFATYYCQQWSSNPLTFGGGTKVEIKRTVAAPSVFIFPPSDEQLKSGTASVVCLLNNFYPREAKVQWKVDNALQSGNSQESVTEQDSKDSTYSLSSTLTLSKADYEKHKVYACEVTHQGLSSPVTKSFNRGEC | 0.177
4 | hz10B4-3 (antibody, human IgG1, kappa, hz10B4_VH3 + hz10B4_VL1; human IgG1, kappa) heavy: not shown light: DIQMTQSPSSLSASVGDRVTMTCSASSSVSYMHWYQQKPGKAPKLLIYDTSKLASGVPSRFSGSGSGTDFTLTISSLQPEDFATYYCQQWSSNPLTFGGGTKVEIKRTVAAPSVFIFPPSDEQLKSGTASVVCLLNNFYPREAKVQWKVDNALQSGNSQESVTEQDSKDSTYSLSSTLTLSKADYEKHKVYACEVTHQGLSSPVTKSFNRGEC | 0.341
5 | hz10B4-4 (antibody, human IgG1, kappa, hz10B4_VH4 + hz10B4_VL1; human IgG1, kappa) heavy: not shown light: DIQMTQSPSSLSASVGDRVTMTCSASSSVSYMHWYQQKPGKAPKLLIYDTSKLASGVPSRFSGSGSGTDFTLTISSLQPEDFATYYCQQWSSNPLTFGGGTKVEIKRTVAAPSVFIFPPSDEQLKSGTASVVCLLNNFYPREAKVQWKVDNALQSGNSQESVTEQDSKDSTYSLSSTLTLSKADYEKHKVYACEVTHQGLSSPVTKSFNRGEC | 0.501
6 | hz10B4-5 (antibody, human IgG1, kappa, hz10B4_VH1 + hz10B4_VL2; human IgG1, kappa) heavy: not shown light: DIQLTQSPSSLSASVGDRVTMTCSASSSVSYMHWYQQKPGKAPKLLIYDTSKLASGVPSRFSGSGSGTDFTLTISSLQPEDFATYYCQQWSSNPLTFGGGTKVEIKRTVAAPSVFIFPPSDEQLKSGTASVVCLLNNFYPREAKVQWKVDNALQSGNSQESVTEQDSKDSTYSLSSTLTLSKADYEKHKVYACEVTHQGLSSPVTKSFNRGEC | 0.998
7 | hz10B4-6 (antibody, human IgG1, kappa, hz10B4_VH2 + hz10B4_VL2; human IgG1, kappa) heavy: not shown light: DIQLTQSPSSLSASVGDRVTMTCSASSSVSYMHWYQQKPGKAPKLLIYDTSKLASGVPSRFSGSGSGTDFTLTISSLQPEDFATYYCQQWSSNPLTFGGGTKVEIKRTVAAPSVFIFPPSDEQLKSGTASVVCLLNNFYPREAKVQWKVDNALQSGNSQESVTEQDSKDSTYSLSSTLTLSKADYEKHKVYACEVTHQGLSSPVTKSFNRGEC | 0.131
8 | hz10B4-9 (antibody, human IgG1, kappa, V domains shown, hz10B4_VH3 + hz10B4_VL3; human IgG1, kappa) VH: EVQLVQSGAEVKKPGASVKVSCKASGYTFTEYIMHWVRQAPGQGLEWMGGINPASGGTTYNQKFKGRVTMTRDTSISTAYMELSRLRSEDTAVYYCARKGKDYFDWYFDVWGQGTTVTVSS VL: DIQLTQSPSSLSASVGDRVTMTCSASSSVSYMHWYQQKPGKAPKLLIYDTSKLASGVPSRFSGSGSGTDFTLTISSLQPEDFATYYCQQWSSAPLTFGGGTKVEIKR | 0.352
9 | hz10B4-10 (antibody, human IgG1, kappa, V domains shown, hz10B4_VH3 + hz10B4_VL4; human IgG1, kappa) VH: EVQLVQSGAEVKKPGASVKVSCKASGYTFTEYIMHWVRQAPGQGLEWMGGINPASGGTTYNQKFKGRVTMTRDTSISTAYMELSRLRSEDTAVYYCARKGKDYFDWYFDVWGQGTTVTVSS VL: DIQLTQSPSSLSASVGDRVTMTCSASSSVSYMHWYQQKPGKAPKLLIYDTSKLASGVPSRFSGSGSGTDFTLTISSLQPEDFATYYCQQWSASPLTFGGGTKVEIKR | 0.381
10 | hz10B4-11 (antibody, human IgG1, kappa, V domains shown, hz10B4_VH3 + hz10B4_VL5; human IgG1, kappa) VH: EVQLVQSGAEVKKPGASVKVSCKASGYTFTEYIMHWVRQAPGQGLEWMGGINPASGGTTYNQKFKGRVTMTRDTSISTAYMELSRLRSEDTAVYYCARKGKDYFDWYFDVWGQGTTVTVSS VL: DIQLTQSPSSLSASVGDRVTMTCSASSSVSYMHWYQQKPGKAPKLLIYDTSKLASGVPSRFSGSGSGTDFTLTISSLQPEDFATYYCQQWSSQPLTFGGGTKVEIKR | 0.422
11 | hz10B4-12 (antibody, human IgG1, kappa, V domains shown, hz10B4_VH4 + hz10B4_VL3; human IgG1, kappa) VH: EVQLVQSGAEVKKPGASVKVSCKASGYTFTEYIMHWVRQAPGQGLEWMGGINPNQGGTTYNQKFKGRVTMTRDTSISTAYMELSRLRSEDTAVYYCARKGKDYFDWYFDVWGQGTTVTVSS VL: DIQLTQSPSSLSASVGDRVTMTCSASSSVSYMHWYQQKPGKAPKLLIYDTSKLASGVPSRFSGSGSGTDFTLTISSLQPEDFATYYCQQWSSAPLTFGGGTKVEIKR | 0.332
12 | hz10B4-13 (antibody, human IgG1, kappa, V domains shown, hz10B4_VH4 + hz10B4_VL4; human IgG1, kappa) VH: EVQLVQSGAEVKKPGASVKVSCKASGYTFTEYIMHWVRQAPGQGLEWMGGINPNQGGTTYNQKFKGRVTMTRDTSISTAYMELSRLRSEDTAVYYCARKGKDYFDWYFDVWGQGTTVTVSS VL: DIQLTQSPSSLSASVGDRVTMTCSASSSVSYMHWYQQKPGKAPKLLIYDTSKLASGVPSRFSGSGSGTDFTLTISSLQPEDFATYYCQQWSASPLTFGGGTKVEIKR | 0.351
13 | hz10B4-14 (antibody, human IgG1, kappa, V domains shown, hz10B4_VH4 + hz10B4_VL5; human IgG1, kappa) VH: EVQLVQSGAEVKKPGASVKVSCKASGYTFTEYIMHWVRQAPGQGLEWMGGINPNQGGTTYNQKFKGRVTMTRDTSISTAYMELSRLRSEDTAVYYCARKGKDYFDWYFDVWGQGTTVTVSS VL: DIQLTQSPSSLSASVGDRVTMTCSASSSVSYMHWYQQKPGKAPKLLIYDTSKLASGVPSRFSGSGSGTDFTLTISSLQPEDFATYYCQQWSSQPLTFGGGTKVEIKR | 0.523
14 | hz17A3-5 (antibody, human IgG1, kappa, V domains shown, hz17A3_VH3 + hz17A3_VL3; human IgG1, kappa) VH: EVQLVQSGAEVKKPGASVKVSCKASGYTFTDYALHWVRQAPGQGLEWMGLINTYSSNTNYNQKFKDRVTMTRDTSISTAYMELSRLRSEDTAVYYCARGITAVVGTRYYAMDYWGQGTLVTVSS VL: EIVLTQSPGTLSLSPGERATLSCRASQSISNNLHWYQQKPGQAPRLLIKYTSQNISGIPDRFSGSGSGTDFTLTISRLEPEDFAVYYCQQSYSWPLTFGGGTKVEIKR | 0.258
15 | hz17A3-1 (antibody, human IgG1, kappa, V domains shown, hz17A3_VH1 + hz17A3_VL1; human IgG1, kappa) VH: QVQLVQSGAEVKKPGASVKVSCKASGYTFTDYALHWVRQAPGQGLEWMGLINTYSSNTNYNQKFKDRVTMTRDTSISTAYMELSRLRSDDTAVYYCARGITAVVGTRYYAMDYWGQGTLVTVSS VL: EIVLTQSPGTLSLSPGERATLSCRASQSISNNLHWYQQKPGQAPRLLIYYTSQNISGIPDRFSGSGSGTDFTLTISRLEPEDFAVYYCQQSYSWPLTFGGGTKVEIKR | 0.541
16 | hz17A3-2 (antibody, human IgG1, kappa, V domains shown, hz17A3_VH2 + hz17A3_VL1; human IgG1, kappa) VH: QVQLVQSGAEVKKPGASVKVSCKASGYTFTDYALHWVRQAPGQGLEWIGLINTYSSNTNYNQKFKDRVTMTRDTSISTAYMELSRLRSDDTAVYYCARGITAVVGTRYYAMDYWGQGTLVTVSS VL: EIVLTQSPGTLSLSPGERATLSCRASQSISNNLHWYQQKPGQAPRLLIYYTSQNISGIPDRFSGSGSGTDFTLTISRLEPEDFAVYYCQQSYSWPLTFGGGTKVEIKR | 0.771
